Assay results taken from US12295987B2, “Method of using a GIP/GLP1 co-agonist for diabetes” (Eli Lilly and Company, priority 2018, dated 2025).

Target: T1, human gastric inhibitory peptide receptor (hGIPR) (Homo sapiens, UniProt P48546)
T1 construct: expressed in transfected cells; host or cells: HEK293
T1 sequence (P48546 22-466): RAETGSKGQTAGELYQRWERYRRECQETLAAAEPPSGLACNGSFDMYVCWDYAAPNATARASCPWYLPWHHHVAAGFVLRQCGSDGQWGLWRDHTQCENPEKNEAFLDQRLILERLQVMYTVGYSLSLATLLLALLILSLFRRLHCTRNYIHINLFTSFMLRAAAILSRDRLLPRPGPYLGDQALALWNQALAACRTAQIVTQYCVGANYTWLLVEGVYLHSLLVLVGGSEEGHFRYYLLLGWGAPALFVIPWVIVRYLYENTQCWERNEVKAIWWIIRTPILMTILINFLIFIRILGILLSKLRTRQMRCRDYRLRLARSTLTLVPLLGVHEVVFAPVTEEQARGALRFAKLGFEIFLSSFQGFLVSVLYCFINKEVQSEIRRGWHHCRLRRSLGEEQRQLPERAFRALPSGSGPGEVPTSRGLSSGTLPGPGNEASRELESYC
Experiment: cAMP pharmacological functional assay in presence of 0.1% casein, hGIPR
Format: cell-based
Settings: ratio of hGIPR to hGLP1R cAMP EC50 ratios
Procedure: Each receptor over-expressing cell line (20 μl) is treated with the test peptide in DMEM (Gibco Cat #31053) supplemented with 0.1% Casein (Sigma Cat #C4765), 250 μM IBMX, 1× GlutaMAX™ (Gibco Cat #35050), and 20 mM HEPES (HyClone Cat #SH30237.01) in a 20 μl assay volume. […] EC50 is the concentration of compound causing half-maximal simulation in a dose response curve. A relative EC50 value is derived by non-linear regression analysis using the percent maximal response vs. the concentration of peptide added, fitted to a four-parameter logistic equation.
Intracellular cAMP levels are determined by extrapolation using a standard curve. Dose response curves of compounds are plotted as the percentage of stimulation normalized to minimum (buffer only) and maximum (maximum concentration of each control ligand) values and analyzed using a four parameter non-linear regression fit with a variable slope (Genedata Screener 13). EC50 is the concentration of compound causing half-maximal simulation in a dose response curve.
EC50 is the concentration of compound causing half-maximal simulation in a dose response curve.

Substance	[hGIPR/hGLP1R] EC50 Ratio
Y-Aib-Aad-GTFTSDYSILLDKK((2-[2-(2-Amino-ethoxy)-ethoxy]-acetyl)2-(γGlu)-CO—(CH2)18—CO2H)AQ-Aib-AFIEYLIEGGPSSGAPPPS-NH2 (YXXGTFTSDYSILLDKKAQXAFIEYLIEGGPSSGAPPPS; Aib, Aad, lipidated Lys, C-terminal amide; (2)..(2) Xaa at position 2 is Aib; (3)..(3) Xaa at position 3 is Aad; MOD_RES (17)..(17) Lys at position 17 is chemically modified by conjugation of the epsilon-amino group of the Lys side chain with (2-[2-(2-amino-ethoxy)-ethoxy]-acetyl)2-(gamma-Glu)-CO-(CH2)18- CO2H; (20)..(20) Xaa at position 20 is Aib; MOD_RES (39)..(39) Ser at position 39 is amidated) [Peptide 89]	8.97
Y-Aib-EGT-αMeF(2F)-TSD-3Pal-SI-αMeL-LDEK((2-[2-(2-Amino-ethoxy)-ethoxy]-acetyl)2-(γGlu)-CO—(CH2)18—CO2H)AQ-Aib-EFIEYLIEGGPSSGAPPPS-NH2 (YXEGTXTSDXSIXLDEKAQXEFIEYLIEGGPSSGAPPPS; Aib, αMeF(2F), 3Pal, αMeL; lipidated K; C-terminal amide; (2)..(2) Xaa at position 2 is Aib; (6)..(6) Xaa at position 6 is alpha-methyl-Phe(2F); (10)..(10) Xaa at position 10 is 3Pal; (13)..(13) Xaa at position 13 is alpha-methyl-Leu; MOD_RES (17)..(17) Lys at position 17 is chemically modified by conjugation of the epsilon-amino group of the Lys side chain with (2-[2-(2-amino-ethoxy)-ethoxy]-acetyl)2-(gamma-Glu)-CO-(CH2)18- CO2H; (20)..(20) Xaa at posit) [Peptide 157]	2.52
Y-Aib-EGT-αMeF(2F)-TSD-4Pal-SI-αMeL-LD-Dab-K((2-[2-(2-Amino-ethoxy)-ethoxy]-acetyl)2-(γGlu)-CO—(CH2)16—CO2H)AQ-Aib-EFI-(D-Glu)-YLIEGGPSSGAPPPS-NH2 (YXEGTXTSDXSIXLDXKAQXEFIXYLIEGGPSSGAPPPS; Aib, 4Pal, Dab, lipidated Lys, D-Glu, C-terminal amide; (2)..(2) Xaa at position 2 is Aib; (6)..(6) Xaa at position 6 is alpha-methyl-Phe(2F); (10)..(10) Xaa at position 10 is 4Pal; (13)..(13) Xaa at position 13 is alpha-methyl-Leu; (16)..(16) Xaa at position 16 is Dab; MOD_RES (17)..(17) Lys at position 17 is chemically modified by conjugation of the epsilon-amino group of the Lys side chain with (2-[2-(2-amino-ethoxy)-ethoxy]-acetyl)2-(gamma-Glu)-CO-) [Peptide 233]	9.25
Y-Aib-EGT-αMeF(2F)-TSD-4Pal-SI-αMeL-LD-Orn-K((2-[2-(2-Amino-ethoxy)-ethoxy]-acetyl)2-(γGlu)-CO—(CH2)16—CO2H)AQ-Aib-EFI-(D-Glu)-αMeY-LIEGG-NH2 (YXEGTXTSDXSIXLDXKAQXEFIXXLIEGG; Aib, αMeF(2F), 4Pal, αMeL, Orn, αMeY, D-Glu; C18 diacid lipidation; amide; (2)..(2) Xaa at position 2 is Aib; (6)..(6) Xaa at position 6 is alpha-methyl-Phe(2F); (10)..(10) Xaa at position 10 is 4Pal; (13)..(13) Xaa at position 13 is alpha-methyl-Leu; (16)..(16) Xaa at position 13 is Orn; MOD_RES (17)..(17) Lys at position 17 is chemically modified by conjugation of the epsilon-amino group of the Lys side chain with (2-[2-(2-amino-ethoxy)-ethoxy]-acetyl)2-(gamma-Glu)-CO-) [Peptide 265]	2.99
Y-Aib-EGT-αMeF(2F)-TSD-4Pal-SI-αMeL-LD-Orn-K((2-[2-(2-Amino-ethoxy)-ethoxy]-acetyl)2-(γGlu)-CO—(CH2)16—CO2H)AQ-Aib-EFI-(D-Glu)-αMeY-LIEGGPSSG-NH2 (YXEGTXTSDXSIXLDXKAQXEFIXXLIEGGPSSG; Aib, αMeF(2F), 4Pal, αMeL, Orn, αMeY, D-Glu; C18 diacid lipidation; amide; (2)..(2) Xaa at position 2 is Aib; (6)..(6) Xaa at position 6 is alpha-methyl-Phe(2F); (10)..(10) Xaa at position 10 is 4Pal; (13)..(13) Xaa at position 13 is alpha-methyl-Leu; (16)..(16) Xaa at position 16 is Orn; MOD_RES (17)..(17) Lys at position 17 is chemically modified by conjugation of the epsilon-amino group of the Lys side chain with (2-[2-(2-amino-ethoxy)-ethoxy]-acetyl)2-(gamma-Glu)-CO-) [Peptide 264]	2.63
Y-Aib-EGT-αMeF(2F)-TSD-4Pal-SI-αMeL-LD-Orn-K((2-[2-(2-Amino-ethoxy)-ethoxy]-acetyl)2-(γGlu)-CO—(CH2)16—CO2H)AQ-Aib-EFI-(D-Glu)-αMeY-LIEGGPSSGAPPPS-NH2 (YXEGTXTSDXSIXLDXKAQXEFIXXLIEGGPSSGAPPPS; Aib, 4Pal, Orn, αMe residues, lipidated Lys, D-Glu, amide; (2)..(2) Xaa at position 2 is Aib; (6)..(6) Xaa at position 6 is alpha-MeF(2F); (10)..(10) Xaa at position 10 is 4Pal; (13)..(13) Xaa at position 13 is alpha-MeL; (16)..(16) Xaa at position 16 is Orn; MOD_RES (17)..(17) K at position 17 is chemically modified by conjugation of the epsilon-amino group of the K side chain with (2-[2-(2-amino-ethoxy)-ethoxy]-acetyl)2-(gamma-Glu)-CO-(CH2)16- CO2H; (20) [Peptide 4]	4.22
Y-Aib-EGT-αMeF(2F)-TSD-4Pal-SI-αMeL-LD-Orn-K((2-[2-(2-Amino-ethoxy)-ethoxy]-acetyl)2-(γGlu)-CO—(CH2)16—CO2H)AQ-Aib-TFI-(D-Glu)-αMeY-LIEGGPSSGAPPPS-NH2 (YXEGTXTSDXSIXLDXKAQXTFIXXLIEGGPSSGAPPPS; Aib, 4Pal, Orn, αMe residues, lipidated Lys, D-Glu, amide; (2)..(2) Xaa at position 2 is Aib; (6)..(6) Xaa at position 6 is alpha-methyl-Phe(2F); (10)..(10) Xaa at position 10 is 4Pal; (13)..(13) Xaa at position 13 is alpha-methyl-Leu; (16)..(16) Xaa at position 16 is Orn; MOD_RES (17)..(17) Lys at position 17 is chemically modified by conjugation of the epsilon-amino group of the Lys side chain with (2-[2-(2-amino-ethoxy)-ethoxy]-acetyl)2-(gamma-Glu)-CO-) [Peptide 239]	5.34
Y-Aib-EGT-αMeF(2F)-TSD-4Pal-SI-αMeL-LD-Orn-K((2-[2-(2-Amino-ethoxy)-ethoxy]-acetyl)2-(εK)-CO—(CH2)18—CO2H)AQ-Aib-AFI-(D-Glu)-αMeY-LIEGGPSSGAPPPS-NH2 (YXEGTXTSDXSIXLDXKAQXAFIXXLIEGGPSSGAPPPS; Aib, 4Pal, Orn, αMe residues, lipidated Lys, D-Glu, amide; (2)..(2) Xaa at position 2 is Aib; (6)..(6) Xaa at position 6 is alpha-methyl-Phe(2F); (10)..(10) Xaa at position 10 is 4Pal; (13)..(13) Xaa at position 13 is alpha-methyl-Leu; (16)..(16) Xaa at position 16 is Orn; MOD_RES (17)..(17) Lys at position 17 is chemically modified by conjugation of the epsilon-amino group of the Lys side chain with (2-[2-(2-amino-ethoxy)-ethoxy]-acetyl)2-(epsilon-Lys)-C) [Peptide 251]	3.74
